The assay concerns the target Anti-CRP antibodies (polyclonal). Description: SPR (Spreeta chip), anti-CRP antibodies injected over OM layer with Z-domain on gold.

The substance “Z-domain of protein A autodisplayed on the E. coli outer membrane as a fusion protein of AIDA-I (from UniProt P38507 212-269; Q03155 840-1286)” showed an SPR signal of 1.1 A.U.

These data come from patent US9482663.
